The assay addresses SARS-CoV-2 (2019-nCoV) Spike S1-His Recombinant Protein (Sino Biological Catalog Number 40591-V08H) (SARS-CoV-2) (UniProt P0DTC2).

Some results are limits rather than exact numbers.

Galanthus nivalis agglutinin (GNA), sequence (P30617 24-128 limits assumed): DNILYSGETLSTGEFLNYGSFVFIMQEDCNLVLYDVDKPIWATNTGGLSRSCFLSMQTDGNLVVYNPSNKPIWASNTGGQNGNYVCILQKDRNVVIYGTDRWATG

For “Galanthus nivalis agglutinin (GNA) (from UniProt P30617 24-128)”, the percent of S1 depleted from solution at 15 minutes is above 90%.
